Measurements taken from patent US20240116985A1, “STAPLED PEPTIDES AND METHODS THEREOF” (priority 2020, published 2024).
Starred links: 1 amine or outer side, 2 acyl side, 3 side chain; linkers in the order of their positions; H or OH if unused. Positions of bridges follow the written chain, without caps; N, C: chain ends. Non-standard residues stand in square brackets, D forms with d. Primed or numbered codes have the meaning given here. No end group written: not given here. *: point of attachment. PyrS2″ = (S)-3-amino-1-((pent-4-en-1-yloxy)carbonyl)pyrrolidine-3-carboxylic acid (stapling residue), C=CCCCOC(=O)N1CC[C@@](N[*:1])(C(=O)[*:2])C1; B5(4) = 2,2-bis(4-pentenyl)glycine = 2-amino-2-(pent-4-en-1-yl)hept-6-enoic acid (stitching residue), C=CCCCC(CCCC=C)(N[*:1])C(=O)[*:2]; B5(5) = 2,2-bis(4-pentenyl)glycine, 2-amino-2-(pent-4-en-1-yl)hept-6-enoic acid (stitching residue), C=CCCCC(CCCC=C)(N[*:1])C(=O)[*:2]; PyrS2 = (S)-3-amino-1-((pent-4-en-1-yloxy)carbonyl)pyrrolidine-3-carboxylic acid, C=CCCCOC(=O)N1CC[C@@](N[*:1])(C(=O)[*:2])C1; SPip2 = 4-amino-1-((pent-4-en-1-yloxy)carbonyl)piperidine-4-carboxylic acid, C=CCCCOC(=O)N1CCC(N[*:1])(C(=O)[*:2])CC1; SPip3 = 4-amino-1-((hex-5-en-1-yloxy)carbonyl)piperidine-4-carboxylic acid, C=CCCCCOC(=O)N1CCC(N[*:1])(C(=O)[*:2])CC1; SPip1 = 4-amino-1-((but-3-en-1-yloxy)carbonyl)piperidine-4-carboxylic acid, C=CCCOC(=O)N1CCC(N[*:1])(C(=O)[*:2])CC1; B5(25) = 2-amino-2-(pent-4-en-1-yl)hept-6-enoic acid (stitching residue), C=CCCCC(CCCC=C)(N[*:1])C(=O)[*:2]; B5 = 2-amino-2-(pent-4-en-1-yl)hept-6-enoic acid, C=CCCCC(CCCC=C)(N[*:1])C(=O)[*:2]; NdiMeButC = N-terminal 4-(dimethylamino)butanoyl, CN(C)CCCC(=O)*; Phe(3-CF3) = N[C@@H](Cc1cccc(C(F)(F)F)c1)C(=O)O; Phe(4-CF3) = N[C@@H](Cc1ccc(C(F)(F)F)cc1)C(=O)O; Phe(3-COOH) = N[C@@H](Cc1cccc(C(=O)O)c1)C(=O)O; Phe(2-CF3) = N[C@@H](Cc1ccccc1C(F)(F)F)C(=O)O; Phe(2-Cl) = N[C@@H](Cc1ccccc1Cl)C(=O)O; Bta = N[C@@H](Cc1csc2ccccc12)C(=O)O; αAllylPro = C=CC[C@@]1(C(=O)O)CCCN1; hPhe = N[C@@H](CCc1ccccc1)C(=O)O; tBuAla = CC(C)(C)C[C@H](N)C(=O)O; 3Thi = N[C@@H](Cc1ccsc1)C(=O)O; R5 = C=CCCC[C@@](C)(N)C(=O)O; Octanoyl = CCCCCCCC(=O)*

B1: I-2586 (peptide)
peptide: Ac-[αAllylPro]D[tBuAla][B5]D[Phe(3-COOH)]QAFL[SPip2][Phe(2-CF3)][Bta]A-NH2
modifications: staple 1-4, 4-11; not fully specified; printed as Ac-PL3-Asp-Npg-B5-Asp-3COOHF-Gln-Ala-Phe-Leu-SPip2-2F3MeF-BztA-Ala-NH2; also: later-eluting staple isomer composition
B2: I-2591 (peptide)
peptide: Ac-[αAllylPro]D[tBuAla][B5]D[Phe(3-COOH)]QAFL[SPip1][3Thi][Bta]A-NH2
modifications: staple 1-4, 4-11; not fully specified; printed as Ac-PL3-Asp-Npg-B5-Asp-3COOHF-Gln-Ala-Phe-Leu-SPip1-3Thi-BztA-Ala-NH2
B3: I-2587 (peptide)
peptide: Ac-[αAllylPro]D[tBuAla][B5]D[Phe(3-COOH)]QAFL[SPip3][Phe(2-CF3)][Bta]A-NH2
modifications: staple 1-4, 4-11; not fully specified; printed as Ac-PL3-Asp-Npg-B5-Asp-3COOHF-Gln-Ala-Phe-Leu-SPip3-2F3MeF-BztA-Ala-NH2
B4: I-2584 (peptide)
peptide: Ac-[αAllylPro]D[tBuAla][B5]D[Phe(3-COOH)]QAFL[SPip1][Phe(2-CF3)][Bta]A-NH2
modifications: staple 1-4, 4-11; not fully specified; printed as Ac-PL3-Asp-Npg-B5-Asp-3COOHF-Gln-Ala-Phe-Leu-SPip1-2F3MeF-BztA-Ala-NH2
B5: I-2575 (peptide)
peptide: Ac-P[R5]ED[tBuAla][B5(25)]D[Phe(3-COOH)]AAFL[PyrS2″][Phe(2-CF3)][Bta]Q-NH2
modifications: staple 6-13, 2-6 (inferred); not fully specified; printed as Ac-Pro-R5-Glu-Asp-Npg-B5-Asp-3COOHF-Ala-Ala-Phe-Leu-PyrS2-2F3MeF-BztA-Gln-NH2
B6: I-2585 (peptide)
peptide: Ac-[αAllylPro]D[tBuAla][B5]D[Phe(3-COOH)]QAFL[SPip2][Phe(2-CF3)][Bta]A-NH2
modifications: staple 1-4, 4-11; not fully specified; printed as Ac-PL3-Asp-Npg-B5-Asp-3COOHF-Gln-Ala-Phe-Leu-SPip2-2F3MeF-BztA-Ala-NH2; also: earlier-eluting staple isomer composition

molecular target: Bcat-Halo (UniProt P35222); assay: NanoBRET absolute IC50 in HEK293 cells; Bcat-Halo, competitor TCF4-Luc
Sequence (P35222 whole entry): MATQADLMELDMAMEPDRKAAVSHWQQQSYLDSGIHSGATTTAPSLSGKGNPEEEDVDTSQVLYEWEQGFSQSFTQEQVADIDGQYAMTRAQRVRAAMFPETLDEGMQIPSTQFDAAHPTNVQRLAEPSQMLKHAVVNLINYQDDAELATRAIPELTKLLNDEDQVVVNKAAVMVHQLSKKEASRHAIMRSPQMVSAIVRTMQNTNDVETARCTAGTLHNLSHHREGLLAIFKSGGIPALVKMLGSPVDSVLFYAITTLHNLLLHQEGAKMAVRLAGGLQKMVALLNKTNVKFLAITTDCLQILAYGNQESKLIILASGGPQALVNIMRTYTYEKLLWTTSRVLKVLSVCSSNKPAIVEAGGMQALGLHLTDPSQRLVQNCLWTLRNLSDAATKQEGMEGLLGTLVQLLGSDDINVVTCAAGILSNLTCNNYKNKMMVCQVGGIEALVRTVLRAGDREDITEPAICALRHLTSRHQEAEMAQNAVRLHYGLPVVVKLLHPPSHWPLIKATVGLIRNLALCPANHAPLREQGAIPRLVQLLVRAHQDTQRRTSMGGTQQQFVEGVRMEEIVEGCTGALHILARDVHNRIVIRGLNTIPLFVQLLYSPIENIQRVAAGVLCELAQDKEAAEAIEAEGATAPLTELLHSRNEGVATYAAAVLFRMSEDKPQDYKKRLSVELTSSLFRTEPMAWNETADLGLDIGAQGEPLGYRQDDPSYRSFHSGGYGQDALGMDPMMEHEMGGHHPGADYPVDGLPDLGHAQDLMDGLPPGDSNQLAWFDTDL

IC50 | Binder
16600 nM | Ac-[αAllylPro]D[tBuAla][B5(5)]DEAAFS[PyrS2″][Phe(2-Cl)][Bta][dT]-NH2 (staple 1-4, 4-11) [I-1036]
4400 nM | Ac-[αAllylPro]D[tBuAla][B5(5)]DEAAFT[PyrS2″][Phe(2-Cl)][Bta][dT]-NH2 (staple 1-4, 4-11) [I-1037]

molecular target: full-length beta-Catenin (Uniprot ID P35222) (Homo sapiens (Human)) (UniProt P35222); assay: fluorescence polarization competition; full-length beta-catenin with 5FAM-TCF4(10-53) probe as competitor
Target sequence in this assay (P35222 2-781 limits assumed): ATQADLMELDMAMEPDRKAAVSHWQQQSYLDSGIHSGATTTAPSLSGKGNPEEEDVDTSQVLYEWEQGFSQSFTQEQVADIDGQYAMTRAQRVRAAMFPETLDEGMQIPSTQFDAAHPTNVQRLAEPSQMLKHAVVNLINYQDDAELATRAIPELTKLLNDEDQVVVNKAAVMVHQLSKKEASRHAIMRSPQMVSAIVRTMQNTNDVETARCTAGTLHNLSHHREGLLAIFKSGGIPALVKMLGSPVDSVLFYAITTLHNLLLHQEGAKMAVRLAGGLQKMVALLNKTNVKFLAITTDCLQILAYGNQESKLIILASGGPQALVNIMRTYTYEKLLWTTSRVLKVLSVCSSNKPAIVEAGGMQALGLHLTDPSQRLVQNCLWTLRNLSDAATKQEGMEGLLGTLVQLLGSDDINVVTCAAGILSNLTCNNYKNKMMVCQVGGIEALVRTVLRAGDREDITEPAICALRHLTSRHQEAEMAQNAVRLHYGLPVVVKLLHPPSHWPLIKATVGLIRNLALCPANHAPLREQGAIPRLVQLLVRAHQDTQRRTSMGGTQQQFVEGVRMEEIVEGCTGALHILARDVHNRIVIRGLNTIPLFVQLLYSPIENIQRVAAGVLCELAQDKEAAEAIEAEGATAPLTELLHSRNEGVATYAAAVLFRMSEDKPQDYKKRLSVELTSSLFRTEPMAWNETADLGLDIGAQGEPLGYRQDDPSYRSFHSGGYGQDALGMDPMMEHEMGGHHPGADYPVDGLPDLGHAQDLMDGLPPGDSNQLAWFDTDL

IC50 | Binder
9 nM | Ac-[αAllylPro]D[tBuAla][B5(4)]DDAAF[Phe(3-CF3)][PyrS2][3Thi][Bta]Q-NH2 (staple 1-4, 4-11) [I-1364]
48 nM | NdiMeButC-[αAllylPro]D[tBuAla][B5(4)]DDAAFS[PyrS2″]F[Bta]S-NH2 (staple 1-4, 4-11) [I-1354]
213 nM | Octanoyl-[αAllylPro]D[tBuAla][B5(4)]DDAAFS[PyrS2″]F[Bta]S-NH2 (staple 1-4, 4-11) [I-1355]
258 nM | [αAllylPro]D[tBuAla][B5(4)]DDAAFF[PyrS2″][hPhe][Bta]Q-NH2 (staple 1-4, 4-11) [I-1351]
9 nM | Ac-[αAllylPro]D[tBuAla][B5(4)]DDAAF[Phe(4-CF3)][PyrS2][3Thi][Bta]Q-NH2 (staple 1-4, 4-11) [I-1365]

molecular target: full-length beta-Catenin (Uniprot ID P35222) (Homo sapiens (Human)) (UniProt P35222); assay: FP competition; full-length beta-catenin, competitor 5FAM-TCF4(10-53)
Target sequence in this assay (P35222 whole entry, one chain of several): as the sequence (P35222 whole entry) above

EC50 | Binder
9 nM | Ac-[αAllylPro]D[tBuAla][B5(4)]DDAAF[Phe(3-CF3)][PyrS2][3Thi][Bta]Q-NH2 (staple 1-4, 4-11) [I-1364]
48 nM | NdiMeButC-[αAllylPro]D[tBuAla][B5(4)]DDAAFS[PyrS2″]F[Bta]S-NH2 (staple 1-4, 4-11) [I-1354]
213 nM | Octanoyl-[αAllylPro]D[tBuAla][B5(4)]DDAAFS[PyrS2″]F[Bta]S-NH2 (staple 1-4, 4-11) [I-1355]
258 nM | [αAllylPro]D[tBuAla][B5(4)]DDAAFF[PyrS2″][hPhe][Bta]Q-NH2 (staple 1-4, 4-11) [I-1351]
9 nM | Ac-[αAllylPro]D[tBuAla][B5(4)]DDAAF[Phe(4-CF3)][PyrS2][3Thi][Bta]Q-NH2 (staple 1-4, 4-11) [I-1365]

molecular target: full-length beta-Catenin (Uniprot ID P35222) (Homo sapiens (Human)) (UniProt P35222); assay: fluorescence polarization competition; full-length beta-catenin, competitor 5FAM-TCF4 10-53
Target sequence in this assay (P35222 whole entry, one chain of several): as the sequence (P35222 whole entry) above

IC50 | Binder
29 nM | Ac-[αAllylPro]D[tBuAla][B5(5)]DEAAFS[PyrS2″][Phe(2-Cl)][Bta][dT]-NH2 (staple 1-4, 4-11) [I-1036]
30 nM | Ac-[αAllylPro]D[tBuAla][B5(5)]DEAAFT[PyrS2″][Phe(2-Cl)][Bta][dT]-NH2 (staple 1-4, 4-11) [I-1037]

molecular target: full-length beta-Catenin (Uniprot ID P35222) (Homo sapiens (Human)) (UniProt P35222); assay: fluorescence polarization competition; 10 nM full-length beta-catenin + 10 nM 5FAM-TCF4 10-53 as competitor probe
Target sequence in this assay (P35222 2-781 limits assumed): as the sequence (P35222 2-781 limits assumed) above

EC50 | Binder
29 nM | Ac-[αAllylPro]D[tBuAla][B5(5)]DEAAFS[PyrS2″][Phe(2-Cl)][Bta][dT]-NH2 (staple 1-4, 4-11) [I-1036]
30 nM | Ac-[αAllylPro]D[tBuAla][B5(5)]DEAAFT[PyrS2″][Phe(2-Cl)][Bta][dT]-NH2 (staple 1-4, 4-11) [I-1037]

molecular target: full-length beta-Catenin (Uniprot ID P35222) (Homo sapiens (Human)) (UniProt P35222); assay: fluorescence polarization competition; full-length beta-catenin, 5FAM-TCF4 10-53 probe as competitor
Target sequence in this assay (P35222 whole entry, one chain of several): as the sequence (P35222 whole entry) above

IC50 | Binder
345 nM | B1
602 nM | B2
273 nM | B3
1840 nM | B4
8160 nM | B5
452 nM | B6
2960 nM | Ac-[R5]AD[tBuAla][B5(25)]D[Phe(3-COOH)]AAFL[PyrS2″][Phe(2-CF3)][Bta]Q-NH2 (staple 1-5, 5-12 (inferred); also: staple -CH=CH- reduced to -CH2-CH2-) [I-2574]
